Reference: patent US20210395322A1 (OSR, published 2021)

Target: T1, Noggin (UniProt Q13253 28-232, limits assumed)
T1 sequence (looked up): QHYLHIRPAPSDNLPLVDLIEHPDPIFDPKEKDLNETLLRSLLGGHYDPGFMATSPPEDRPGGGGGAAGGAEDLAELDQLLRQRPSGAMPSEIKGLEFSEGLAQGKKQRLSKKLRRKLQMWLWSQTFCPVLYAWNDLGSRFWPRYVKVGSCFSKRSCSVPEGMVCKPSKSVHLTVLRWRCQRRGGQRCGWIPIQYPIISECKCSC
Test: size-exclusion chromatography of the AB204 and Noggin mixture

B1: AB204 (ligand)
chain: MQAKHKQRKRLKSSCKRHPLYVDFSDVGWNDWIIAPSGYHANYCDGECPFPLADHLNSTNHAIVQTLVNSVNSKIPKACCVPTKLRPMSMLYYDDGQNIIKKDIQNMIVEECGCS
notes: also called Noggin-insensitive chimera AB204
B1: no binding.
